Results: the supplement of paper PMC6755084

B1: F1*; the commonest letter at each place (parent)
chain: GAGACCGCAACTGAAAAGTTGTTATCACTTGTCGTAAGACACTTTGGATGGGTTGAAGTTCTGCACGTAGAAGCAAAAGGC

Variants of: B1
Test: fraction ligated after 30 min (ligated reads / total reads); higher = more ligase activity
Details: with F1*sub RNA substrate (template-directed ligation), 42 °C
Description: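 Chip-synthesised pool of F1* ligase ribozyme variants (all single and double substitutions, single, double and triple deletions in the catalytic core and GAA bulge, plus designed variants) was transcribed with T7 and reacted as a pool with excess substrate F1*sub for 30 min at 42 C in 50 mM EPPS pH 8.5, 25 mM MgCl2. Ligated and unligated bands were separated by PAGE, barcoded by RT and deep sequenced; fraction ligated = ligated reads / total reads per variant, relative activity = FL / FL of wild type (0.826). Sequences are the DNA template of the ribozyme.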

In order of falling fraction ligated:
1. C26T A56T  0.867
2. C26T A57G  0.86
3. C26T G34C  0.855
4. C26T A37T  0.853
5. C26T A57T  0.852
6. C26T G47A  0.843
7. C26T A37C  0.841
8. C26T A37G  0.841
9. C26T A57C  0.84
10. C26T C42T  0.837
11. C26T  0.836
12. C26T G46A  0.835
13. C26T C40T  0.833
14. C26T G34A  0.832
15. C26T C33T  0.829
16. C26T A36G  0.828
17. C26T A36T  0.827
18. C26T G38A  0.823
19. C26T A39T  0.823
20. C26T A39G  0.819
21. C26T C33G  0.819
22. C26T C40G  0.817
23. C26T A41G  0.813
24. C26T G34T  0.812
25. C26T A27C  0.811
26. C26T G46C  0.81
27. C26T G38C  0.81
28. C26A T43A  0.809
29. C26T A27T  0.808
30. C26A T35C  0.807
31. C26A T29C  0.804
32. C26T C42A  0.804
33. C26A T35A  0.803
34. C26A T30G  0.802
35. C26G G47A  0.8
36. C26G T30A  0.8
37. C26T C33A  0.798
38. C26T C40A  0.797
39. C26T A41T  0.796
40. C26T C28A  0.795
41. C26T C42G  0.795
42. C26A T35G  0.794
43. C26G C40G  0.793
44. C26A T44A  0.792
45. C26A T30A  0.791
46. C26G T35A  0.79
47. C26T A39C  0.789
48. C26G T29A  0.789
49. C26T A36C  0.788
50. C26A T29A  0.786
51. C26G G46A  0.785
52. C26A T29G  0.784
53. C26G T35G  0.784
54. C26G T43A  0.783
55. C26A T44C  0.782
56. C26G A27C  0.782
57. C26A T30C  0.781
58. C26G T44A  0.781
59. C26A T44G  0.78
60. C26G T29G  0.778
61. C26G T44G  0.776
62. C26G  0.773
63. C26G A36T  0.773
64. C26G T35C  0.772
65. C26T A41C  0.771
66. C26T A27G  0.771
67. C26T A56G  0.768
68. C26T C28G  0.768
69. C26G C42A  0.767
70. C26G A36G  0.767
71. C26G A37G  0.762
72. C26A G47A  0.762
73. C26G C42T  0.76
74. C26T G46T  0.758
75. C26G T30G  0.757
76. C26T A48G  0.756
77. C26G A39G  0.755
78. C26A T43C  0.755
79. C26G C33G  0.754
80. C26G T29C  0.749
81. C26A G46C  0.744
82. C26G C33T  0.738
83. C26T C28T  0.733
84. C26G T44C  0.731
85. C26G G46C  0.719
86. C26G G34T  0.718
87. C26G A41G  0.716
88. C26G A37T  0.707
89. C26G C42G  0.7
90. C26G A27G  0.694
91. C26G T43C  0.689
92. C26G C28A  0.688
93. C26G C40T  0.678
94. C26G T30C  0.676
95. C26G A37C  0.674
96. C26A G55A  0.618
97. C26G C28G  0.611
98. C26T G31T  0.585
99. C26G A57G  0.576
100. C26G C28T  0.558
101. C26A T43G  0.547
102. C26A T32C  0.545
103. C26A T49G  0.502
104. C26A T32G  0.499
105. C26G A39T  0.493
106. C26A T32A  0.48
107. C26G T43G  0.479
108. C26T G38T  0.478
109. C26G C33A  0.473
110. C26G A41T  0.459
111. C26A G46T  0.449
112. C26G G38A  0.446
113. C26T A48C  0.418
114. C26G G46T  0.417
115. C26G A27T  0.411
116. C26T G31C  0.408
117. C26G G47C  0.404
118. C26G T49G  0.371
119. C26G G34C  0.371
120. C26A T45A  0.366
121. C26G G34A  0.357
122. C26T G31A  0.342
123. C26G A57C  0.33
124. C26G A57T  0.312
125. C26T A56C  0.29
126. C26A G55T  0.249
127. C26G C40A  0.248
128. C26G T32C  0.245
129. C26G T32A  0.238
130. C26A G47T  0.235
131. C26A T49A  0.216
132. C26G T49A  0.188
133. C26G G31C  0.176
134. C26G G55A  0.169
135. C26G G31A  0.165
136. C26G G47T  0.159
137. C26G T32G  0.125
138. C26G A39C  0.123
139. C26G A48C  0.104
140. C26A T49C  0.0891
141. C26G G38T  0.0811
142. C26A T45C  0.0795
143. C26G T49C  0.0764
144. C26A G50T  0.0739
145. C26G G50T  0.0691
146. C26G T45A  0.0653
147. C26G A48G  0.058
148. C26G A36C  0.0567
149. C26A G47C  0.0466
150. C26G A41C  0.0431
151. C26A T45G  0.0382
152. C26A G55C  0.0379
153. C26G G31T  0.0375
154. C26G G55T  0.0355
155. C26G A56T  0.0342
156. C26G G50C  0.0252
157. C26G A56G  0.0248
158. C26G A56C  0.0241
159. C26G T45G  0.0236
160. C26G G50A  0.0221
161. C26A G50C  0.0201
162. C26A G50A  0.0155
163. C26T A48T  0.0105
164. C26G T45C  0.00783
165. C26G G55C  0.00657
166. C26G A48T  0.00571
167. C26G G38C  0.00552
